B1: fibulin-3 (F3): N249Q (protein)
parent chain: MLKALFLTMLTLALVKSQDTEETITYTQCTDGYEWDPVRQQCKDIDECDIVPDACKGGMKCVNHYGGYLCLPKTAQIIVNNEQPQQETQPAEGTSGATTGVVAASSMATSGVLPGGGFVASAAAVAGPEMQTGRNNFVIRRNPADPQRIPSNPSHRIQCAAGYEQSEHNVCQDIDECTAGTHNCRADQVCINLRGSFACQCPPGYQKRGEQCVDIDECTIPPYCHQRCVNTPGSFYCQCSPGFQLAANNYTCVDINECDASNQCAQQCYNILGSFICQCNQGYELSSDRLNCEDIDECRTSSYLCQYQCVNEPGKFSCMCPQGYQVVRSRTCQDINECETTNECREDEMCWNYHGGFRCYPRNPCQDPYILTPENRCVCPVSNAMCRELPQSIVYKYMSIRSDRSVPSDIFQIQATTIYANTINTFRIKSGNENGEFYLRQTSPVSAMLVLVKSLSGPREHIVDLEMLTVSSIGTFRTSSVLRLTIIVGPFSF
B2: fibulin-3 (F3): R140W/N249Q (protein)
parent chain: B1 parent chain
B3: fibulin-3 (F3): N249Q/R387Q (protein)
parent chain: B1 parent chain
B4: fibulin-3 (F3): I220F/N249Q (protein)
parent chain: B1 parent chain
B5: fibulin-3 (F3): D49A/N249Q (protein)
parent chain: B1 parent chain

Experiments:
[1] = anti-FLAG western blot of conditioned media, HEK293A; details: glycan lost; for expression_or_secretion, other: relative secretion, % of N249Q F3: control: same variant with N249 glycan (normalised to WT F3), arms normalised to N249Q F3
[2] = anti-FLAG western blot of cell lysate (intracellular level), HEK293A; details: glycan lost; control: WT F3

Protein | expression_or_secretion, percent_of_wt ([1]; control: WT F3) | expression_or_secretion, percent_of_wt [2] | expression_or_secretion, other: relative secretion, % of N249Q F3 [1]
B1 | no change | no change | –
B2 | – | – | no change
B3 | – | – | no change
B4 | – | – | no change
B5 | – | – | no change

From article PMC7862258
